{"source": "paper PMC10215022", "key": {"[1]": {"target": "SARS-CoV-2 Delta (B.1.617.2) spike protein RBD, His-tagged (SARS-CoV-2 Delta (B.1.617.2)) (UniProt P0DTC2)", "test": "SPR"}, "[2]": {"target": "SARS-CoV-2 Omicron (B.1.1.529) spike protein RBD, His-tagged (SARS-CoV-2 Omicron (B.1.1.529)) (UniProt P0DTC2)", "test": "SPR"}}, "data": [{"substance": "decavalent IgM ACE2 decoy (from UniProt Q9BYF1;P01591) (Fc fusion)", "values": [{"measurement": "Kd", "setting": "[1]", "result": 0.49, "unit": "nM"}, {"measurement": "koff", "setting": "[1]", "result": 0.00013, "unit": "s⁻¹"}, {"measurement": "kon", "setting": "[1]", "result": 260000, "unit": "M⁻¹ s⁻¹"}, {"measurement": "Kd", "setting": "[2]", "result": 2.4, "unit": "nM"}, {"measurement": "koff", "setting": "[2]", "result": 0.00036, "unit": "s⁻¹"}, {"measurement": "kon", "setting": "[2]", "result": 150000, "unit": "M⁻¹ s⁻¹"}]}]}
